The nanobody polyreactivity screen of Harvey et al. (2022)

Assay: yeast display, Sf9 membrane polyspecificity reagent, FACS + sequencing; frameworks hold sequencing errors
Outline: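 A synthetic nanobody library was expressed on Saccharomyces cerevisiae BJ5465 by galactose induction for 36–48 hours. The library was stained for 1 hour at 4 °C with 10% biotinylated, detergent-solubilized Sf9 membrane reagent and enriched with streptavidin microbeads before FACS. Low and high (top ~1%) gates were set on anti-HA fluorescence for expression and streptavidin fluorescence for reagent binding, and each polyreactivity label reflects the gate of origin.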
In the case of “QDQLVESGGGLVQAGGSLRLSCAASGRIFPWYTMGWYRQAPGKERELVAVISSGGRTHYADSVKGRFTISRDNAKNTVYLLMNSLKPEDTAVYYCAAESRYQRYDYWGQGTKVTVSS”, the “polyreactivity (PSR sort gate)” value is reported as “high polyreactivity”. In the case of “QDQLVESGGGLVQAGGSLRLSCAASGRIFRRNTQGWSRQAPGKERELVAAITSSGGSTFADSVKGRFTISRDNAKNTVYLQMNSLKPEDTAVYYCATYVAYHRGYRTYDHWGQGTQVTVSS”, the “polyreactivity (PSR sort gate)” value is reported as “low polyreactivity”. For “QDQLVESGGGLVQAGGSLRLSCAASGRIFSKYAKGWYRQAPGKERELVAAITTGGGSTSYADSVKGRFTISRDNAKITVYLQMNSLKPEDTAVYYCAADRLSYGFGMYYWGQGTQVTVSS”, the “polyreactivity (PSR sort gate)” value was “low polyreactivity”. In the case of “QDQLVESGGGLVQAGGSLRLSCAASGRIFYRYAMGWYRQAPGKERELVATISRSGGSTNYADSVKGRFTISRDNAKKTVYLQLNSLKPEDTAVYYCAAQYTYRFPYPGYATTHDYWGQGTQVTVSS”, the “polyreactivity (PSR sort gate)” value is reported as “high polyreactivity”. In the case of “QDQLVESGGGLVQAGGSLRLSCAASGRIIRAYAMGWYRQAPGKERELVAAISGGSNTNYADSVKGRFTISRDNAKNTVYLQMNSLKPEDTAVYYCAADAGYWESLWYPYGFYWGQGTQVTVSS”, the “polyreactivity (PSR sort gate)” value is reported as “low polyreactivity”. For “QDQLVESGGGLVQAGGSLRLSCAASGRILRRNVMGWYRQAPGKESELVATITNSGGRTYYADSVKGRFTISRDNEKNTVYLLMNSLQPEDTAVYYCAKYGYGYTGYGYWGQGTQVTVSS”, the “polyreactivity (PSR sort gate)” value was “high polyreactivity”. With “QDQLVESGGGLVQAGGSLRLSCAASGRISTYTMGWYRQAPGKERELVATISTDASTNYADSVKGRFTISRDNAKNTVYLQMNSLRPEDTAVYYCAAVIVNQDYDYWGQGTQVTVSS” the “polyreactivity (PSR sort gate)” value was “low polyreactivity”. For “QDQLVESGGGLVQAGGSLRLSCAASGRNFRYYTMGWYRQAPGKERELVAAITRRGGITNYADSVKGRFTISRDNGKNTVYLQMNSLKPEDTAVYYCAAKYVSQCYDYWGQGTQVTVSS”, the “polyreactivity (PSR sort gate)” value was “high polyreactivity”. In the case of “QDQLVESGGGLVQAGGSLRLSCAASGRNFSYYAMGWYRQAPGKERELVAAIRWSGGRTYYADSVKGRFTISRDNAKNTVYLQMNSLKPEDTAVYYCAAEGAYRLAYDSWGQGTQVTVSS”, the “polyreactivity (PSR sort gate)” value is reported as “high polyreactivity”. In the case of “QDQLVESGGGLVQAGGSLRLSCAASGRTFAAYAMGWYRQAPGKERELVATIRRGGTTDYADSVKGRFTISRDNAKNTVYLQMNSLKPEDTAVYYCNARSRTYRTRRYDYWGQGTQVTVSS”, the “polyreactivity (PSR sort gate)” value is reported as “high polyreactivity”. With “QDQLVESGGGLVQAGGSLRLSCAASGRTFAYNAMVWYRQAPGKERELVADITSGGSTYYADSVKGRFTISRDNPKNTVNLQMNSLKPEDTAVYDCADVRQGSFTTMDYWGQGTQVTVSS” the “polyreactivity (PSR sort gate)” value was “high polyreactivity”. In the case of “QDQLVESGGGLVQAGGSLRLSCAASGRTFFGYAMGWYRQAPGKERELVAAITTSGGSTYYADSVKGRFTISRDNAKNTVYLQMNSLKPEDTAVYYCAARAYYGYYYWGQGTQVTVSS”, the “polyreactivity (PSR sort gate)” value is reported as “low polyreactivity”. For “QDQLVESGGGLVQAGGSLRLSCAASGRTFIRNAMGWYRPAPGKERELVAAISRSGGRTYYADSVKGRFTISRDNAKNTVYLQMNSLKPEDTAVYYCAAGSYQRYAFDYWGQGTQVTVSS”, the “polyreactivity (PSR sort gate)” value was “high polyreactivity”. With “QDQLVESGGGLVQAGGSLRLSCAASGRTFIRNSMGWNRQAPGKERELVAAISGTGGSTYYADSVKGRFTISRDYAKNTVYLQMNSLKPEDTAVYYCAADRPAPGYDFWGQVTQVTVSS” the “polyreactivity (PSR sort gate)” value was “low polyreactivity”. With “QDQLVESGGGLVQAGGSLRLSCAASGRTFLRYTMGWYRQAPGTETELVADITNGGTRTYYADSVKGRFTFSRDYAKNTVYLQMNRLKPEDTAVYYCGARVRYTANYDYWGQGTQVTVSS” the “polyreactivity (PSR sort gate)” value was “high polyreactivity”. In the case of “QDQLVESGGGLVQAGGSLRLSCAASGRTFPPYGMGWSRQAPGKERELVAAISKSSGSTNYADSVKGRFTISRDNAKNTVYLQMNSLKPEDTAVYYFNVDLYRWSKLAGAYRMDYWGQGTQVTVSS”, the “polyreactivity (PSR sort gate)” value is reported as “low polyreactivity”. With “QDQLVESGGGLVQAGGSLRLSCAASGRTFRRNAMGWYRPAPGKERELVAAITSSGGSTYYADSVKGRFTISRDNAKNTVYLQMNSLKPEDTAVYYCNAVGKPQSSQYYYWGQGTQVTVSS” the “polyreactivity (PSR sort gate)” value was “high polyreactivity”. For “QDQLVESGGGLVQAGGSLRLSCAASGRTFRVYAMGWYRQAPGKERELVATITSSGGSTYYADSVKGRFTISRDNAKNTVYLQMNCLKPEDTAVYYCAADGGSASIHDYWGQGTQVTVSS”, the “polyreactivity (PSR sort gate)” value was “low polyreactivity”. For “QDQLVESGGGLVQAGGSLRLSCAASGRTFRWNAMGWYRQAPGKERELVAAITKSGGSTYYADSVKGRFTISRDNAKNTVYLQMNSLKPEDTAVYYCAAPRYSTFTYDYWGQGTQVTVSS”, the “polyreactivity (PSR sort gate)” value was “low polyreactivity”. With “QDQLVESGGGLVQAGGSLRLSCAASGRTFSYNTMGWYRQAPGKERELVAAITRSGGSTYYADSVKGRFTISRDNAKNTVYLQINSLKPEDTAVYYCNARSWYWGQGTQVTVSS” the “polyreactivity (PSR sort gate)” value was “high polyreactivity”. With “QDQLVESGGGLVQAGGSLRLSCAASGRTFTRNAMGWYRQAPGKERELVAAISISGGRPYYADSVKGRFTISRDNAKNTVYLQMNSLKPEDTAVYYWAKVTTSKYDYDYWGQGTQVTVSS” the “polyreactivity (PSR sort gate)” value was “high polyreactivity”. For “QDQLVESGGGLVQAGGSLRLSCAASGRTFWVYAMGWYRQAPGKERELVAAIRRGGITNYADSVKGRFTISRDNAKNTVYLQMNSLKPEDTAVYYCATDNYGYLTRYYYWGQGTQVTVSS”, the “polyreactivity (PSR sort gate)” value was “low polyreactivity”. With “QDQLVESGGGLVQAGGSLRLSCAASGRTFYDNVMGWYRQAPGKERELVAAISSGASTNYADSVKGRFTISRDNAKNSVYFQMNSLKPEDSAVYYCATNGGGGWAYEYWGQGTQVTVSS” the “polyreactivity (PSR sort gate)” value was “low polyreactivity”. In the case of “QDQLVESGGGLVQAGGSLRLSCAASGRTFYQYAMGWYRQAPGKERELVAAITFRGGSTNYADSVKGRFTISRDNAKNTVYLQMNSLKPEDTAVYYCAATVYGTVYKGRSQYEYGYWGQGTQVTVSS”, the “polyreactivity (PSR sort gate)” value is reported as “high polyreactivity”. In the case of “QDQLVESGGGLVQAGGSLRLSCAASGSIFADYAMGWYRQAPGKERELVAVISRRGGTTYYADSVKGRFTISRDNAKNTVYLQMNSLKPEDTAVYYCAARRSFNEYDSWGHGTQVTVSS”, the “polyreactivity (PSR sort gate)” value is reported as “high polyreactivity”. For “QDQLVESGGGLVQAGGSLRLSCAASGSIFDDYAMGWYRQAPRKERELVASISWSGGRTYYADSVKGRFTISRDNAKNTVYLQMNSLKPEDTAVYYCAAALWTGYSWGQGTQVTVSS”, the “polyreactivity (PSR sort gate)” value was “low polyreactivity”. In the case of “QDQLVESGGGLVQAGGSLRLSCAASGSIFGVNDMGWYRQGAGKERELVAGINQGGGSTYYADSVKGRFTISRDNAKNSVYLQMNSLKPEETAVYYCAAVRYVLRSPARYGYWGQGTQVTVSS”, the “polyreactivity (PSR sort gate)” value is reported as “low polyreactivity”. With “QDQLVESGGGLVQAGGSLRLSCAASGSIFKHNDMGWYRQAPGKERELVAAISRSGGSTYYAHSVKGRFTISRDNAKNTVYLLMNSLKPEDTAVYYCNAGRRTARYGYWGQGTQVTVSS” the “polyreactivity (PSR sort gate)” value was “high polyreactivity”. With “QDQLVESGGGLVQAGGSLRLSCAASGSIFKINAMGWYRQATGKERELVATITWSTGTTYYADSVKGRFTISRDNAKNTVYLQMNSLKPEDTAVYYCATDGDSTKLDYWGQGTQVTVSS” the “polyreactivity (PSR sort gate)” value was “low polyreactivity”. For “QDQLVESGGGLVQAGGSLRLSCAASGSIFLYNAMGWYRQAPGKERELVADITSAGRTYYADSVKGRFTISRDNAKNTVYLQMNSLKPEDTAVYDCNKDYHYHFSWYGYWGQGTQVTVSS”, the “polyreactivity (PSR sort gate)” value was “low polyreactivity”. For “QDQLVESGGGLVQAGGSLRLSCAASGSIFSGYAMGWYRQPPGKERELVAAISRRGTSTYYADSVKGRFTISRDNAKNTVYLQMNSLKPEDTAFYYCAATYGGRQSYGGFDYWGQGTQVTVSS”, the “polyreactivity (PSR sort gate)” value was “high polyreactivity”. With “QDQLVESGGGLVQAGGSLRLSCAASGSIFSNNAMGWYRQAPGKERELVATITFSGGNTYYADSVKGRFTISRDNAKNTVYLQMNSLKPEDTAVYYCNADRYPVGTAREYDSWGQGTQVTVSS” the “polyreactivity (PSR sort gate)” value was “low polyreactivity”. For “QDQLVESGGGLVQAGGSLRLSCAASGSIFTSYAMGWYRQAPGKERELVAAITGGDSTNYADSVKGRFTISRDNAKNTVYLQMNSLKPEDTAVYYCNAADPNYFDRDTHYYWGQGTQVTVSS”, the “polyreactivity (PSR sort gate)” value was “low polyreactivity”. With “QDQLVESGGGLVQAGGSLRLSCAASGSILGHYDMGWYRPAPGKERELVAAISWSGGSTYYADSVKGRFTISRDNAKNTVYLQMNSLKPEDTAVYYCNAAAILYTSAGSLYWYDYWGQGTQVTVSS” the “polyreactivity (PSR sort gate)” value was “low polyreactivity”. For “QDQLVESGGGLVQAGGSLRLSCAASGSISSKNAMGCYRQAPGKEREFVAVISGTGGSTYYSDSVKGRFTISRDNAKNTVYLQMNRLKPEDTAVYYCAAAGSSIVSYGYSWTYGYWGQGTQVTVSS”, the “polyreactivity (PSR sort gate)” value was “low polyreactivity”. In the case of “QDQLVESGGGLVQAGGSLRLSCAASGSNFAVYAMGWSRQAPGKERELVAAISYRGARTYYADSVKGRFTISRDNAKNTVYLQMNSLKPEDTAVYYCAAQGVTSPGVDSWGQGTQVTVSS”, the “polyreactivity (PSR sort gate)” value is reported as “high polyreactivity”. In the case of “QDQLVESGGGLVQAGGSLRLSCAASGSTFEYYAMGWYRQAPGKERELVAAISSGPSTTYADSVKGRFTISRDNAKNTVYLQMNSLKPEDTAVYYCARRDGTTQALFGYDYWGQGTQVTVSS”, the “polyreactivity (PSR sort gate)” value is reported as “low polyreactivity”. In the case of “QDQLVESGGGLVQAGGSLRLSCAASGSTFEYYAMGWYRQAPGKERELVAAITRRGGSTYYADSVKGRFTISRDNAKNTVYLQMNSLKPEDTAVYYCAAVPTQKSQRTHDYCGQGTQVTVSS”, the “polyreactivity (PSR sort gate)” value is reported as “low polyreactivity”. With “QDQLVESGGGLVQAGGSLRLSCAASGSTFGYYAMGWYRKAPGKERELVAAITSGASTNYADSVKGRFTISRDNAKNTVYLQMNSLKPEDTAVSYCAAGFQTRTPLNEFDYWGQGTQVTVSS” the “polyreactivity (PSR sort gate)” value was “low polyreactivity”. For “QDQLVESGGGLVQAGGSLRLSCAASGSTFGYYAMGWYRQAPGKERELVAAISWRGGTYYADSVKGRFTISRDNAKNTVYLQMNSLKPEDTAVYYCAADDYIVSRYRYGVRYGYWGQGTQVTVSS”, the “polyreactivity (PSR sort gate)” value was “high polyreactivity”. In the case of “QDQLVESGGGLVQAGGSLRLSCAASGSTFGYYVMGWYRQAPGKERELVAGISSSGGSTYYADSVKGRFTISRDNAKNTVYLQMNSLKPEDTAVYYCAAVRGTGTRRYDYWGQGTQVTVSS”, the “polyreactivity (PSR sort gate)” value is reported as “high polyreactivity”.
